Reference: patent US7223547B2, “Polypeptides having a functional domain of interest and methods of identifying and using same” (Cytogen Corporation, priority 1995, dated 2007)
* marks the point of attachment. Biotin = O=C1N[C@H]2[C@H](CS[C@H]2CCCCC(=O)*)N1

Tests used:
[1] = patients to whom the drug is administered; cited from earlier work
[2] = tested on: virus that causes hepatitis B; settings: at given dosages; cited from earlier work
[3] = target: T1, SH3P17, a novel human gene (human, UniProt Q15811 729-1220); test: plaque-lift screen of human prostate cancer and bone marrow cDNA expression libraries with biotinylated peptide complexed to SA-AP (T12SRC.4 also present in the initial screens)
T1 construct: Fragment encoded by a cDNA clone, with at least four SH3 domains, on plaque-lift filters
T1 sequence: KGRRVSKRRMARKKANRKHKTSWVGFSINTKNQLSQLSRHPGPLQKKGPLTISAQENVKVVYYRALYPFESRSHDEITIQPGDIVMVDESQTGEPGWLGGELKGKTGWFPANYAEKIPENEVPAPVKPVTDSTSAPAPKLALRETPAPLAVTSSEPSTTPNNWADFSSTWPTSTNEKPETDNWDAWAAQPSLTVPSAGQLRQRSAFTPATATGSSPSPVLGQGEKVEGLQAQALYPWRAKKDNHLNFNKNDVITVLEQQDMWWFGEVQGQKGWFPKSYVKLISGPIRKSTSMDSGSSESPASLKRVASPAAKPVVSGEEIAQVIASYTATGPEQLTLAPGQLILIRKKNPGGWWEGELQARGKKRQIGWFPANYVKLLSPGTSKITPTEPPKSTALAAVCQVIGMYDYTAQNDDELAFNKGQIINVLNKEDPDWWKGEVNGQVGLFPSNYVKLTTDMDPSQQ

[4] = target: T2, SH3P18, a novel human gene (human, UniProt Q9NZM3 952-1192); test: as above
T2 construct: Fragment encoded by a cDNA clone, with at least three SH3 domains, on plaque-lift filters
T2 sequence: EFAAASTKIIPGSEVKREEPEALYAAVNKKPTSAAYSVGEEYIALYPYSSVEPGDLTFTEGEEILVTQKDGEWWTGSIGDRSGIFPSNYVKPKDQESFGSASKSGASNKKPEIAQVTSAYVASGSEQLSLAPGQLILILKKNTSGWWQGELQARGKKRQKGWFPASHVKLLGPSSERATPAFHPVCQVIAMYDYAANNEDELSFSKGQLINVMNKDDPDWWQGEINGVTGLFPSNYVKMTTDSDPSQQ

SH3P14, human H74 = target: T3, SH3P14, human H74 (human, UniProt Q9UNF0 118-486, limits assumed); test: as above
T3 construct: Protein encoded by a cDNA clone from a lambda gt11 or gt22a human library, on plaque-lift filters
T3 sequence: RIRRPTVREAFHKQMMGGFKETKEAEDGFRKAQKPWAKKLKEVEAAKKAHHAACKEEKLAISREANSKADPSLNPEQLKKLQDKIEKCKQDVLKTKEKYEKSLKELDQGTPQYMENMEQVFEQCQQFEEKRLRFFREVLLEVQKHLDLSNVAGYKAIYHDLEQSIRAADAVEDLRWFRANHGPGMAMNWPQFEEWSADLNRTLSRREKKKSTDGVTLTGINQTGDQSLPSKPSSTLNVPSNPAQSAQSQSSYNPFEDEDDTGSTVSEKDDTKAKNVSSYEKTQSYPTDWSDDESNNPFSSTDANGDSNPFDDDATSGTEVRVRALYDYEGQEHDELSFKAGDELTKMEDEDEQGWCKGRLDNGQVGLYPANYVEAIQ

[5] = target: T4, SH3P9, a novel human gene (human, UniProt O00499 44-593); test: as above
T4 construct: Protein encoded by a cDNA clone from a lambda gt11 or gt22a human library, on plaque-lift filters; The vector fusion partner is not described; also called human homolog of SH3P9
T4 sequence: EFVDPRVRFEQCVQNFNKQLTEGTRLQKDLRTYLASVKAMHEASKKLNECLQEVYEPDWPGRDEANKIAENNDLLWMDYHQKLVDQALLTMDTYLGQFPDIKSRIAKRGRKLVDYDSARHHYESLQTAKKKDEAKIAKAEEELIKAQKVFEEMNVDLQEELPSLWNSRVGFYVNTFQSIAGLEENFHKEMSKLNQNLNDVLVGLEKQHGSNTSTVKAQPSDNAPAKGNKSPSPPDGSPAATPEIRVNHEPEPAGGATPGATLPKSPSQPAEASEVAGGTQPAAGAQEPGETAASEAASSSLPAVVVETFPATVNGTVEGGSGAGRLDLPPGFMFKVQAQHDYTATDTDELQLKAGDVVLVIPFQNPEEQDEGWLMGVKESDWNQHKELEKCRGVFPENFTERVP

SH3P6, mouse MLN50 = target: T5, SH3P6, mouse MLN50 (mouse, UniProt Q61792 59-263); test: plaque-lift screen of mouse 16 day embryo cDNA expression library with biotinylated peptide complexed to SA-AP
T5 construct: Protein encoded by a cDNA clone, on plaque-lift filters; not shown: N-terminal phi10 leader (T7-Tag) common to all lambda EXlox recombinants
T5 sequence: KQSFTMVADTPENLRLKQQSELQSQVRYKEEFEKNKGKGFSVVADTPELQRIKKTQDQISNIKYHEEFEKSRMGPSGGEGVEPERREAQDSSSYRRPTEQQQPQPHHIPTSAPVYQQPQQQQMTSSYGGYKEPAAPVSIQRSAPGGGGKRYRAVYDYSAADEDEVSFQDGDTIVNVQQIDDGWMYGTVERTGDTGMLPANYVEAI

SH3P10, mouse HS1 = target: T6, SH3P10, mouse HS1 (mouse, UniProt P49710 1-486); test: as above
T6 construct: Protein encoded by a cDNA clone, on plaque-lift filters; also called SPY75/HS1; not shown: N-terminal phi10 leader (T7-Tag) common to all lambda EXlox recombinants
T6 sequence: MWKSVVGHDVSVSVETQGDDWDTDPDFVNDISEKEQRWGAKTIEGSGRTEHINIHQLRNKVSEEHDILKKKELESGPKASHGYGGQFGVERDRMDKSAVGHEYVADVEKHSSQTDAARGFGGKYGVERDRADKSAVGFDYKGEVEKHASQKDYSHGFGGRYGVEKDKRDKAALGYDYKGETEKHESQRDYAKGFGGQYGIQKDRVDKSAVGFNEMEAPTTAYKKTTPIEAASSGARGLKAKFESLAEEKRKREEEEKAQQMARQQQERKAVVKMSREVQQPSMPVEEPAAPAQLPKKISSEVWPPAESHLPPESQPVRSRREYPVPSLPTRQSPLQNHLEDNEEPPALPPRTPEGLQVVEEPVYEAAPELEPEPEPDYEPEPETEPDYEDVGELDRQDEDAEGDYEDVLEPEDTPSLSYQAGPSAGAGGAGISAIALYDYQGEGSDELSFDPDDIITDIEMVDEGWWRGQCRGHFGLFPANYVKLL

SH3P5, mouse Cortactin = target: T7, SH3P5, mouse Cortactin (mouse, UniProt Q60598 1-546); test: as above
T7 construct: Protein encoded by a cDNA clone, on plaque-lift filters; not shown: N-terminal phi10 leader (T7-Tag) common to all lambda EXlox recombinants

[6] = target: T8, SH3P7, a novel mouse gene (mouse, UniProt Q62418 1-436); test: as above
T8 construct: Protein encoded by a cDNA clone, on plaque-lift filters; not shown: N-terminal phi10 leader (T7-Tag) common to all lambda EXlox recombinants

[7] = target: T9, SH3P8, a novel mouse gene (mouse, UniProt Q62419 1-368); test: as above
T9 construct: Protein encoded by a cDNA clone, on plaque-lift filters; not shown: N-terminal phi10 leader (T7-Tag) common to all lambda EXlox recombinants

[8] = target: T10, SH3P9, a novel mouse gene (mouse, UniProt O08539 2-588); test: as above
T10 construct: Protein encoded by a cDNA clone, on plaque-lift filters; also called SH3P9 (mouse); not shown: N-terminal phi10 leader (T7-Tag) common to all lambda EXlox recombinants
T10 sequence: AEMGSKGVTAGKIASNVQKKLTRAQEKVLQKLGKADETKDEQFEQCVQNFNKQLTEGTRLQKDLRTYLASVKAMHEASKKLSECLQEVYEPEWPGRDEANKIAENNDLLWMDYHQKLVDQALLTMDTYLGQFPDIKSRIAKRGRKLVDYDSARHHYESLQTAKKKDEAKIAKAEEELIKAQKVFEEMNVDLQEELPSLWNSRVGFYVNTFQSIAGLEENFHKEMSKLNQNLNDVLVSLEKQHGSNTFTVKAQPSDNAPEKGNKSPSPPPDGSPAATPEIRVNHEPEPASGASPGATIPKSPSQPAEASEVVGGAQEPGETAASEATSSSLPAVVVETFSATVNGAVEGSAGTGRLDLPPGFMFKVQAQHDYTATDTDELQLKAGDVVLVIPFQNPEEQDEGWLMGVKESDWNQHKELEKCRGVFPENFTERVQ

[9] = target: T11, SH3P12, a novel mouse gene (mouse, UniProt Q62417 1-1290); test: as above
T11 construct: Protein encoded by a cDNA clone, on plaque-lift filters; not shown: N-terminal phi10 leader (T7-Tag) common to all lambda EXlox recombinants
T11 sequence: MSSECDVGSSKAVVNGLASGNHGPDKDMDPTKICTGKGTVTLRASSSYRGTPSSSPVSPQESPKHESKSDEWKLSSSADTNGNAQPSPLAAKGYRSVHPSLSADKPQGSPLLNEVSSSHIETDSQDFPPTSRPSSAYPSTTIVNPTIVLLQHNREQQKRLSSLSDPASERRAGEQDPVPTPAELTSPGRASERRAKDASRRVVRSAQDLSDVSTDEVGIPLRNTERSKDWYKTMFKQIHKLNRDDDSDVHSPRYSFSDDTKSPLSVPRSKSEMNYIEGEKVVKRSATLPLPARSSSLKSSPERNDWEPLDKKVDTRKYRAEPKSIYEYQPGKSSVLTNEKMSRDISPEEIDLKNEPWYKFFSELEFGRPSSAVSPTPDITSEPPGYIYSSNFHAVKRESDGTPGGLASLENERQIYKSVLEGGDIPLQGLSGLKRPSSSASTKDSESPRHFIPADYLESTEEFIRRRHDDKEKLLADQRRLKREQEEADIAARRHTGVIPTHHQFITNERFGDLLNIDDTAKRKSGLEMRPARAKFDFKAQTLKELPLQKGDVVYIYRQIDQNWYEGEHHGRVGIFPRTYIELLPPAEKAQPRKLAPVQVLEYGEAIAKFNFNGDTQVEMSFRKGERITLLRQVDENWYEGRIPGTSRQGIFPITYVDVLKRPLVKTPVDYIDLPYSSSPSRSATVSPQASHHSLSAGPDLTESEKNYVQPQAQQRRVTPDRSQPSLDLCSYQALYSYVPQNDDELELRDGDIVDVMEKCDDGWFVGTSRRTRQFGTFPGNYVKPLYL

SH3P11, mouse Crk = target: T12, SH3P11, mouse Crk (mouse, UniProt Q64010 1-304); test: as above
T12 construct: Protein encoded by a cDNA clone, on plaque-lift filters; not shown: N-terminal phi10 leader (T7-Tag) common to all lambda EXlox recombinants

[10] = target: T13, SH3P13, a novel mouse gene (mouse, UniProt Q62421 1-347); test: as above
T13 construct: Protein encoded by a cDNA clone, on plaque-lift filters; not shown: N-terminal phi10 leader (T7-Tag) common to all lambda EXlox recombinants
T13 sequence: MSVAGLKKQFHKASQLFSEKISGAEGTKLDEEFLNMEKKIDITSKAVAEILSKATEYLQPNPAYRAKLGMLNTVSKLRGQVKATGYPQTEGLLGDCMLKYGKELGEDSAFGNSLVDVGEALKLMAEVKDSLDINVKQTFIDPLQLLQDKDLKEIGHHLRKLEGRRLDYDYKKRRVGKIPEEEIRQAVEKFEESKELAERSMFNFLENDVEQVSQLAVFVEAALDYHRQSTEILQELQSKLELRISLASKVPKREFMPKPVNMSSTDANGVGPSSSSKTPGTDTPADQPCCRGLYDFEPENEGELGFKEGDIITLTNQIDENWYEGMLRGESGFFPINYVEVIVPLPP

T7 sequence (Q60598 whole entry S298P): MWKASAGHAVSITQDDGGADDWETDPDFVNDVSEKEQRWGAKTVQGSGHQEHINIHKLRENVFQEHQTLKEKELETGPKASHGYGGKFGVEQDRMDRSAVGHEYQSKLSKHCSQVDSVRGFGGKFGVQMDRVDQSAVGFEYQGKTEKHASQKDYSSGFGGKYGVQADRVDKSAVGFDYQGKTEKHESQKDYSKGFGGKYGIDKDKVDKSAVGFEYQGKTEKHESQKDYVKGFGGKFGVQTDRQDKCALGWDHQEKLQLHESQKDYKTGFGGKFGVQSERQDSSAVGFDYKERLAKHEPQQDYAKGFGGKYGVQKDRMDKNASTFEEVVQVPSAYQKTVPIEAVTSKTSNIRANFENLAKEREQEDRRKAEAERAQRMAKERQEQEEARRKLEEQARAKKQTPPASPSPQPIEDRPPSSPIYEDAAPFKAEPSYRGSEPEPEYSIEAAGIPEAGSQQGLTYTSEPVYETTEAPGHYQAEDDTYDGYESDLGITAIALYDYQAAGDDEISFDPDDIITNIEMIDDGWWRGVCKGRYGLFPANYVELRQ
T12 sequence (Q64010 whole entry): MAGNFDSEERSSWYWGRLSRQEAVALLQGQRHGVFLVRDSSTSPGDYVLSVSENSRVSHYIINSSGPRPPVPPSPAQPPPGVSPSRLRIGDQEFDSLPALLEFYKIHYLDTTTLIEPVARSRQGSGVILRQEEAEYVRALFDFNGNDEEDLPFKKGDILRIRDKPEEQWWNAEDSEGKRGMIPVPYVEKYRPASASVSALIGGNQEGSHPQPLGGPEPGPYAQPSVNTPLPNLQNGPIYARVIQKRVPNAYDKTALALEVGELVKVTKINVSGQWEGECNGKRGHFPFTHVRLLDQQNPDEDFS
T8 sequence (Q62418 other isoform, or with tags, fused parts or gaps): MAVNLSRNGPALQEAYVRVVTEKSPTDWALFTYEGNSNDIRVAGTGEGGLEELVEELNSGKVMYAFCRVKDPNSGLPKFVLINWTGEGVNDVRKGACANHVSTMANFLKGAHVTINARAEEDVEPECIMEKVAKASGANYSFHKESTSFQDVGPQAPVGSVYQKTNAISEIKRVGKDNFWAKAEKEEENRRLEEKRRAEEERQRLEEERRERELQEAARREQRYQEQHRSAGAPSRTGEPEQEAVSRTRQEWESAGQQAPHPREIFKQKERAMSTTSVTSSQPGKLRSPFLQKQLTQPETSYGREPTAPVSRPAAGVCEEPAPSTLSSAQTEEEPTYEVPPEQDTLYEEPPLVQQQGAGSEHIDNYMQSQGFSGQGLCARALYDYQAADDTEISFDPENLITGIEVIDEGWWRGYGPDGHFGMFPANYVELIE
T9 sequence (Q62419 other isoform, or with tags, fused parts or gaps): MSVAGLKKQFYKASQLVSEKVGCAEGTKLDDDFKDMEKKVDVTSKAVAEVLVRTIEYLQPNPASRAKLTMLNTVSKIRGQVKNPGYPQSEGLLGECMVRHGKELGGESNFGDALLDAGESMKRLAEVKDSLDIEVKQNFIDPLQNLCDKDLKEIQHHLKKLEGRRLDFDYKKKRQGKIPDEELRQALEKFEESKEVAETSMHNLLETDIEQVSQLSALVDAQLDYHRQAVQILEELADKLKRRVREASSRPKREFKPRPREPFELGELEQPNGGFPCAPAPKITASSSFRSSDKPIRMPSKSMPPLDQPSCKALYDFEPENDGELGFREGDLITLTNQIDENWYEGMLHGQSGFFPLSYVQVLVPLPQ

O=c1[nH]c(=O)n([C@@H]2O[C@H](CO)[C@@H](O)[C@@H]2F)cc1I [FIAU]
effective: effectiveness against the virus that causes hepatitis B [2]
liver failure in certain patients: suspected toxic side effects [1]

B1: T12SRC.1 (biotin-GILAPPVPPRNTR-NH2) (peptide)
peptide: Biotin-GILAPPVPPRNTR-NH2
SMILES: CC[C@H](C)[C@H](NC(=O)CNC(=O)CCCC[C@@H]1SC[C@@H]2NC(=O)N[C@@H]21)C(=O)N[C@@H](CC(C)C)C(=O)N[C@@H](C)C(=O)N1CCC[C@H]1C(=O)N1CCC[C@H]1C(=O)N[C@H](C(=O)N1CCC[C@H]1C(=O)N1CCC[C@H]1C(=O)N[C@@H](CCCNC(=N)N)C(=O)N[C@@H](CC(N)=O)C(=O)N[C@H](C(=O)N[C@@H](CCCNC(=N)N)C(N)=O)[C@@H](C)O)C(C)C
notes: Used complexed with streptavidin-alkaline phosphatase; also called variant of the pSrcCII peptide
binds: binding result [3] | binding result [4] | binding result (SH3P14, human H74) | binding result [5]

B2: pCort (biotin-SGSGSRLTPQSKPPLPPKPSWVSR-NH2) (peptide)
peptide: Biotin-SGSGSRLTPQSKPPLPPKPSWVSR-NH2
SMILES: CC(C)C[C@H](NC(=O)[C@H](CCCNC(=N)N)NC(=O)[C@H](CO)NC(=O)CNC(=O)[C@H](CO)NC(=O)CNC(=O)[C@H](CO)NC(=O)CCCC[C@@H]1SC[C@@H]2NC(=O)N[C@@H]21)C(=O)N[C@H](C(=O)N1CCC[C@H]1C(=O)N[C@@H](CCC(N)=O)C(=O)N[C@@H](CO)C(=O)N[C@@H](CCCCN)C(=O)N1CCC[C@H]1C(=O)N1CCC[C@H]1C(=O)N[C@@H](CC(C)C)C(=O)N1CCC[C@H]1C(=O)N1CCC[C@H]1C(=O)N[C@@H](CCCCN)C(=O)N1CCC[C@H]1C(=O)N[C@@H](CO)C(=O)N[C@@H](Cc1c[nH]c2ccccc12)C(=O)N[C@H](C(=O)N[C@@H](CO)C(=O)N[C@@H](CCCNC(=N)N)C(N)=O)C(C)C)[C@@H](C)O
notes: Synthetic peptide with the Cortactin SH3 recognition unit motif; used complexed with streptavidin-alkaline phosphatase
binds: binding result (SH3P6, mouse MLN50) | binding result (SH3P10, mouse HS1) | binding result (SH3P5, mouse Cortactin) | binding result [6] | binding result [7] | binding result [8] | binding result [9] | binding result (SH3P11, mouse Crk) | binding result [10]
